Reference: PMC4116151 (Biochemistry, 2014)

T1: YbdB (Escherichia coli, UniProt P0A8Y8)
T1 sequence (P0A8Y8 1-137): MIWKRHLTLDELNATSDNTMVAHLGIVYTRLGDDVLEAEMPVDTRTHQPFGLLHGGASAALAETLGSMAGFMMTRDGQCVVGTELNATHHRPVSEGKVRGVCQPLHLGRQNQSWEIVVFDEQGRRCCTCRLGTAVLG

T2: YdiI (Escherichia coli, UniProt P77781)
T2 sequence (P77781 1-136): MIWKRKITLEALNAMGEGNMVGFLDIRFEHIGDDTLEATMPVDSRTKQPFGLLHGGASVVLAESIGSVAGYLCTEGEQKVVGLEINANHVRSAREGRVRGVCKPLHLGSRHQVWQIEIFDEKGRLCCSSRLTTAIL

T3: YbdB (Escherichia coli, UniProt P0A8Y8, M68V)
T3 sequence (P0A8Y8 1-137 M68V): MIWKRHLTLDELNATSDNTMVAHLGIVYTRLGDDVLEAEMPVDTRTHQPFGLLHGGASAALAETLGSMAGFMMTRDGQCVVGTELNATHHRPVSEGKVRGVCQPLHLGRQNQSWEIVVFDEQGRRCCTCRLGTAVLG


Tests used:
YbdB [1] = target: T1, YbdB; assay: steady-state inhibition of thioester hydrolysis, DTNB coupled assay; assay type: biochemical
YdiI [2] = target: T2, YdiI; assay: as above; assay type: biochemical
YbdB [3] = target: T3, YbdB; assay: steady-state kinetics, DTNB coupled assay at […] nm; assay type: biochemical; conditions: pH 7.5, 25 °C; 50 mM K+HEPES, 1 mM DTNB
YdiI [4] = target: T2, YdiI; assay: steady-state kinetics, DTNB coupled assay at […] nm; assay type: biochemical; conditions: pH 7.5, 25 °C; 50 mM K+HEPES, 1 mM DTNB
YdiI [5] = target: T2, YdiI; assay: steady-state inhibition of 4-hydroxybenzoyl-CoA hydrolysis, direct […] nm assay; assay type: biochemical
YbdB [6] = target: T1, YbdB; assay: as above; assay type: biochemical
purified protein = substrate: CC(C)(COP(=O)(O)OP(=O)(O)OC[C@H]1O[C@@H](n2cnc3c(N)ncnc32)[C@H](O)[C@@H]1OP(=O)(O)O)[C@@H](O)C(=O)NCCC(=O)NCCSC(=O)c1ccccc1; assay: purified protein; conditions: pH 7.5, 25 °C, 50 mM K+HEPES, 1 mM DTNB

Molecule	Km (purified protein)	also measured
CC(C)(COP(=O)(O)OP(=O)(O)OC[C@H]1O[C@@H](n2cnc3c(N)ncnc32)[C@H](O)[C@@H]1OP(=O)(O)O)[C@@H](O)C(=O)NCCC(=O)NCCSCC(=O)c1ccc(O)cc1O [compound 5, 2,4-DHP-CoA]		Ki (YbdB [1]): 5.9 ± 6 µM; Ki (YdiI [2]): 2.5 ± 0.2 µM
CC(C)(COP(=O)(O)OP(=O)(O)OC[C@H]1O[C@@H](n2cnc3c(N)ncnc32)[C@H](O)[C@@H]1OP(=O)(O)O)[C@@H](O)C(=O)NCCC(=O)NCCSC(=O)c1ccccc1 [compound 3, benzoyl-CoA]		Km (YbdB [3]): 24 ± 2 µM; Km (YdiI [4]): 25 ± 3 µM
CCCCCCCCCC(=O)CSCCNC(=O)CCNC(=O)[C@H](O)C(C)(C)COP(=O)(O)OP(=O)(O)OC[C@H]1O[C@@H](n2cnc3c(N)ncnc32)[C@H](O)[C@@H]1OP(=O)(O)O [compound 6, UDO-CoA]		Ki (YdiI [2]): 12.2 ± 0.5 µM
CC(C)(COP(=O)(O)OP(=O)(O)OC[C@H]1O[C@@H](n2cnc3c(N)ncnc32)[C@H](O)[C@@H]1OP(=O)(O)O)[C@@H](O)C(=O)NCCC(=O)NCCS [compound 4, CoA]		Ki (YdiI [5]): 16 ± 1 µM; Ki (YbdB [6]): 210 ± 10 µM
CC(C)(COP(=O)(O)OP(=O)(O)OC[C@H]1O[C@@H](n2cnc3c(N)ncnc32)[C@H](O)[C@@H]1OP(=O)(O)O)[C@@H](O)C(=O)NCCC(=O)NCCSCC(=O)c1ccccc1 [phenacyl-CoA]		Ki (YbdB [1]): 65 ± 6 µM; Ki (YdiI [2]): 7.8 ± 0.4 µM
YbdB (Escherichia coli K-12) (protein) MIWKRHLTLDELNATSDNTMVAHLGIVYTRLGDDVLEAEMPVDTRTHQPFGLLHGGASAALAETLGSMAGFMMTRDGQCVVGTELNATHHRPVSEGKVRGVCQPLHLGRQNQSWEIVVFDEQGRRCCTCRLGTAVLG	12 ± 1 µM	
YdiI (Escherichia coli K-12; S64A) (protein) MIWKRKITLEALNAMGEGNMVGFLDIRFEHIGDDTLEATMPVDSRTKQPFGLLHGGASVVLAEAIGSVAGYLCTEGEQKVVGLEINANHVRSAREGRVRGVCKPLHLGSRHQVWQIEIFDEKGRLCCSSRLTTAIL	11.9 ± 0.9 µM	
YdiI (Escherichia coli K-12; H54A) (protein) MIWKRKITLEALNAMGEGNMVGFLDIRFEHIGDDTLEATMPVDSRTKQPFGLLAGGASVVLAESIGSVAGYLCTEGEQKVVGLEINANHVRSAREGRVRGVCKPLHLGSRHQVWQIEIFDEKGRLCCSSRLTTAIL	100 ± 8 µM	
YdiI (Escherichia coli K-12; H54F) (protein) MIWKRKITLEALNAMGEGNMVGFLDIRFEHIGDDTLEATMPVDSRTKQPFGLLFGGASVVLAESIGSVAGYLCTEGEQKVVGLEINANHVRSAREGRVRGVCKPLHLGSRHQVWQIEIFDEKGRLCCSSRLTTAIL	16.8 ± 0.9 µM	
YdiI (Escherichia coli K-12; S67A) (protein) MIWKRKITLEALNAMGEGNMVGFLDIRFEHIGDDTLEATMPVDSRTKQPFGLLHGGASVVLAESIGAVAGYLCTEGEQKVVGLEINANHVRSAREGRVRGVCKPLHLGSRHQVWQIEIFDEKGRLCCSSRLTTAIL	12.6 ± 0.2 µM	
YdiI (Escherichia coli K-12; R91A) (protein) MIWKRKITLEALNAMGEGNMVGFLDIRFEHIGDDTLEATMPVDSRTKQPFGLLHGGASVVLAESIGSVAGYLCTEGEQKVVGLEINANHVASAREGRVRGVCKPLHLGSRHQVWQIEIFDEKGRLCCSSRLTTAIL	23 ± 3 µM	
YdiI (Escherichia coli K-12; E63D) (protein) MIWKRKITLEALNAMGEGNMVGFLDIRFEHIGDDTLEATMPVDSRTKQPFGLLHGGASVVLADSIGSVAGYLCTEGEQKVVGLEINANHVRSAREGRVRGVCKPLHLGSRHQVWQIEIFDEKGRLCCSSRLTTAIL	120 ± 10 µM	
YdiI (Escherichia coli K-12; H89A) (protein) MIWKRKITLEALNAMGEGNMVGFLDIRFEHIGDDTLEATMPVDSRTKQPFGLLHGGASVVLAESIGSVAGYLCTEGEQKVVGLEINANAVRSAREGRVRGVCKPLHLGSRHQVWQIEIFDEKGRLCCSSRLTTAIL	180 ± 10 µM	
YdiI (Escherichia coli K-12; S109A) (protein) MIWKRKITLEALNAMGEGNMVGFLDIRFEHIGDDTLEATMPVDSRTKQPFGLLHGGASVVLAESIGSVAGYLCTEGEQKVVGLEINANHVRSAREGRVRGVCKPLHLGARHQVWQIEIFDEKGRLCCSSRLTTAIL	14.2 ± 0.2 µM	
YdiI (Escherichia coli K-12; Q48N) (protein) MIWKRKITLEALNAMGEGNMVGFLDIRFEHIGDDTLEATMPVDSRTKNPFGLLHGGASVVLAESIGSVAGYLCTEGEQKVVGLEINANHVRSAREGRVRGVCKPLHLGSRHQVWQIEIFDEKGRLCCSSRLTTAIL	12.6 ± 0.8 µM	
